Experimental data as given in the Human Domainome abundance scans (Beltran et al. 2025).
± gives the uncertainty stated by the source.

B1: E3 ubiquitin-protein ligase TRIM36, residues 208 to 252; numbered along this chain, Q9NQ86 (parent)
chain: KILMCPEHETERINMYCELCRRPVCHLCKLGGNHANHRVTTMSSA

Variants of: B1
Test: abundance fitness (aPCA) (normalised: wild type 0, dead -1); higher = more abundant; growth selection in yeast, the domain comes from the species named
Details: Homo sapiens

I13G and I13A are within error of each other in abundance fitness: 0.145 ± 0.12 for the first, -0.015 ± 0.078 for the second.

I13R and I13M are within error of each other in abundance fitness: -0.143 ± 0.12 for the first, 0.049 ± 0.31 for the second.

I13P and I13L are within error of each other in abundance fitness: 0.166 ± 0.14 for the first, 0.032 ± 0.1 for the second.

I13W and T10V are within error of each other in abundance fitness: -0.035 ± 0.15 for the first, -0.161 ± 0.059 for the second.

T10K and T10M are within error of each other in abundance fitness: 0.041 ± 0.057 for the first, -0.038 ± 0.069 for the second.

T10P and T10H are within error of each other in abundance fitness: -0.015 ± 0.082 for the first, -0.039 ± 0.07 for the second.

T10R and T10E are within error of each other in abundance fitness: -0.039 ± 0.049 for the first, -0.049 ± 0.064 for the second.

T10Q and T10D are within error of each other in abundance fitness: 0.021 ± 0.067 for the first, -0.132 ± 0.087 for the second.

Going from T10G to T10F, the abundance fitness falls from -0.071 ± 0.045 to -0.337 ± 0.11.

T10Y and T10N are within error of each other in abundance fitness: -0.171 ± 0.082 for the first, -0.282 ± 0.17 for the second.

T10L and T10A are within error of each other in abundance fitness: -0.142 ± 0.058 for the first, -0.12 ± 0.053 for the second.

T10S and T10C are within error of each other in abundance fitness: -0.078 ± 0.057 for the first, -0.06 ± 0.088 for the second.

First: T10W
Second: Y16M
The abundance fitness of the first is lower: -0.273 ± 0.06 for the first, 0.11 ± 0.25 for the second.

Y16D and Y16H are within error of each other in abundance fitness: -0.105 ± 0.11 for the first, 0.082 ± 0.14 for the second.

Y16K and Y16L are within error of each other in abundance fitness: -0.16 ± 0.1 for the first, -0.053 ± 0.076 for the second.

Y16S and Y16P are within error of each other in abundance fitness: -0.135 ± 0.074 for the first, -0.111 ± 0.37 for the second.

Y16G and Y16Q are within error of each other in abundance fitness: -0.478 ± 0.11 for the first, -0.306 ± 0.29 for the second.

Compared with Y16W, Y16A is lower in abundance fitness: -0.04 ± 0.1 for the first, -0.264 ± 0.11 for the second.

First: Y16F
Second: Y16V
The abundance fitness of the first is higher: -0.046 ± 0.084 for the first, -0.437 ± 0.28 for the second.

Compared with Y16T, Y16R is lower in abundance fitness: 0.284 ± 0.15 for the first, -0.069 ± 0.065 for the second.

E11R and E11P are within error of each other in abundance fitness: -0.602 ± 0.081 for the first, -0.854 ± 0.42 for the second.

E11Y and E11K are within error of each other in abundance fitness: 0.082 ± 0.27 for the first, -0.259 ± 0.11 for the second.

Going from E11M to E11C, the abundance fitness falls from -0.322 ± 0.13 to -0.773 ± 0.1.

E11G and E11V are within error of each other in abundance fitness: -0.047 ± 0.12 for the first, -0.126 ± 0.077 for the second.

E11S and E11Q are within error of each other in abundance fitness: -0.132 ± 0.097 for the first, -0.079 ± 0.13 for the second.

Going from E11W to E11L, the abundance fitness rises from -0.52 ± 0.13 to -0.196 ± 0.11.

Compared with E11A, E18A is higher in abundance fitness: -0.376 ± 0.074 for the first, -0.145 ± 0.055 for the second.

M15C and M15R are within error of each other in abundance fitness: 0.12 ± 0.18 for the first, -0.329 ± 0.35 for the second.

M15A and M15T are within error of each other in abundance fitness: -0.166 ± 0.18 for the first, -0.08 ± 0.1 for the second.

M15Q and M15V are within error of each other in abundance fitness: -0.285 ± 0.23 for the first, -0.309 ± 0.27 for the second.

M15E and E7H are within error of each other in abundance fitness: -0.024 ± 0.13 for the first, 0.01 ± 0.13 for the second.

E7C and E7K are within error of each other in abundance fitness: -0.209 ± 0.067 for the first, -0.085 ± 0.06 for the second.

E7N and E7Q are within error of each other in abundance fitness: -0.169 ± 0.099 for the first, -0.041 ± 0.058 for the second.

E7R and E7V are within error of each other in abundance fitness: -0.104 ± 0.045 for the first, -0.011 ± 0.064 for the second.

Compared with E7P, E7L is higher in abundance fitness: -0.783 ± 0.086 for the first, -0.127 ± 0.055 for the second.

E7T and E7F are within error of each other in abundance fitness: -0.042 ± 0.062 for the first, -0.129 ± 0.071 for the second.

E7G and E7W are within error of each other in abundance fitness: -0.292 ± 0.055 for the first, -0.315 ± 0.065 for the second.

E7S and E7A are within error of each other in abundance fitness: -0.103 ± 0.056 for the first, -0.064 ± 0.056 for the second.

C17G and C17Q are within error of each other in abundance fitness: -0.733 ± 0.088 for the first, -0.954 ± 0.43 for the second.

C17S and C17Y are within error of each other in abundance fitness: -0.897 ± 0.19 for the first, -0.862 ± 0.39 for the second.

Compared with C17W, C17T is higher in abundance fitness: -1.16 ± 0.15 for the first, -0.796 ± 0.15 for the second.

Going from C17R to C17F, the abundance fitness falls from -0.909 ± 0.086 to -1.21 ± 0.15.

C17A and C17H are within error of each other in abundance fitness: -1.01 ± 0.17 for the first, -0.656 ± 0.47 for the second.

C17L and C17E are within error of each other in abundance fitness: -1.04 ± 0.45 for the first, -0.763 ± 0.079 for the second.

C17V and C17P are within error of each other in abundance fitness: -0.813 ± 0.087 for the first, -0.705 ± 0.12 for the second.

N14R and N14A are within error of each other in abundance fitness: -0.149 ± 0.071 for the first, -0.037 ± 0.077 for the second.

Compared with N14S, N14T is higher in abundance fitness: -0.041 ± 0.088 for the first, 0.172 ± 0.1 for the second.

N14F and N14E are within error of each other in abundance fitness: 0.08 ± 0.1 for the first, 0.048 ± 0.095 for the second.

N14L and N14Y are within error of each other in abundance fitness: 0.036 ± 0.083 for the first, -0.065 ± 0.13 for the second.

First: N14K
Second: N14W
The abundance fitness of the first is higher: 0.036 ± 0.068 for the first, -0.224 ± 0.072 for the second.

First: N14G
Second: N14C
The abundance fitness of the first is lower: -0.152 ± 0.076 for the first, 0.106 ± 0.1 for the second.

N14V and N14H are within error of each other in abundance fitness: 0.034 ± 0.16 for the first, 0.055 ± 0.11 for the second.

N14M and N14D are within error of each other in abundance fitness: 0.073 ± 0.1 for the first, -0.13 ± 0.35 for the second.

Compared with N14P, N14Q is higher in abundance fitness: -0.195 ± 0.12 for the first, 0.018 ± 0.06 for the second.

Going from E9K to E9M, the abundance fitness falls from 0.079 ± 0.067 to -0.099 ± 0.065.

E9L and E9H are within error of each other in abundance fitness: -0.04 ± 0.052 for the first, -0.069 ± 0.099 for the second.

E9V and E9Q are within error of each other in abundance fitness: -0.051 ± 0.052 for the first, -0.062 ± 0.073 for the second.

E9I and E9A are within error of each other in abundance fitness: -0.042 ± 0.069 for the first, -0.043 ± 0.053 for the second.

E9R and E9C are within error of each other in abundance fitness: -0.072 ± 0.044 for the first, -0.074 ± 0.061 for the second.

E9G and E9Y are within error of each other in abundance fitness: 0.008 ± 0.045 for the first, -0.076 ± 0.12 for the second.

E9P and E9D are within error of each other in abundance fitness: 0.075 ± 0.061 for the first, 0.008 ± 0.075 for the second.

E9N and E9T are within error of each other in abundance fitness: -0.052 ± 0.088 for the first, 0.053 ± 0.053 for the second.

Going from E9S to H8F, the abundance fitness falls from 0.07 ± 0.057 to -0.795 ± 0.34.

H8S and H8D are within error of each other in abundance fitness: -0.786 ± 0.068 for the first, -0.858 ± 0.089 for the second.

H8Y and H8A are within error of each other in abundance fitness: -0.983 ± 0.15 for the first, -0.951 ± 0.065 for the second.

Going from H8K to H8V, the abundance fitness falls from -0.638 ± 0.065 to -1.13 ± 0.073.

H8W and H8M are within error of each other in abundance fitness: -1.6 ± 0.2 for the first, -1.4 ± 0.22 for the second.

H8N and H8G are within error of each other in abundance fitness: -0.819 ± 0.089 for the first, -0.766 ± 0.055 for the second.

H8R and H8Q are within error of each other in abundance fitness: -0.841 ± 0.059 for the first, -0.716 ± 0.073 for the second.

Compared with H8T, H8L is lower in abundance fitness: -0.72 ± 0.075 for the first, -1.24 ± 0.08 for the second.

Going from H8C to R12A, the abundance fitness rises from -0.611 ± 0.076 to -0.258 ± 0.12.

R12D and R12K are within error of each other in abundance fitness: -0.539 ± 0.18 for the first, -0.365 ± 0.28 for the second.

First: R12P
Second: R12G
The abundance fitness of the first is higher: 0.186 ± 0.12 for the first, -0.057 ± 0.061 for the second.

R12S and R12I are within error of each other in abundance fitness: -0.38 ± 0.26 for the first, -0.14 ± 0.079 for the second.

First: R12W
Second: R12E
The abundance fitness of the first is lower: -0.269 ± 0.083 for the first, -0.016 ± 0.098 for the second.

R12L and P6E are within error of each other in abundance fitness: -0.034 ± 0.071 for the first, -0.016 ± 0.052 for the second.

P6V and P6G are within error of each other in abundance fitness: -0.069 ± 0.07 for the first, -0.14 ± 0.046 for the second.

P6K and P6D are within error of each other in abundance fitness: 0.023 ± 0.078 for the first, -0.092 ± 0.071 for the second.

P6R and P6C are within error of each other in abundance fitness: -0.145 ± 0.049 for the first, -0.235 ± 0.069 for the second.

Going from P6Q to P6W, the abundance fitness falls from -0.042 ± 0.071 to -0.378 ± 0.078.

P6H and P6M are within error of each other in abundance fitness: -0.108 ± 0.095 for the first, -0.224 ± 0.066 for the second.

P6F and P6Y are within error of each other in abundance fitness: -0.234 ± 0.094 for the first, -0.228 ± 0.067 for the second.

Going from P6I to P6T, the abundance fitness rises from -0.219 ± 0.084 to 0.018 ± 0.076.

For P6N, the abundance fitness was -0.139 ± 0.1.
